Data on one substance can be found in PMC5056442.

The experiment addresses BamE (E. coli) (UniProt P0A937). Kind of experiment: SEC + native MS; purified BamABCDE; SDS-PAGE, gel filtration (Superdex200 10/300 GL, TBS with 0.05% DDM, 21 °C) and non-covalent nanoESI-MS named together for the molar ratio. On the technique in general: Size exclusion chromatography separates by hydrodynamic size, large species first.

Broadly, the stoichiometry N is a count of units in the complex or per binding partner.

Chain of UniProt P0A937 (P0A937 20-113): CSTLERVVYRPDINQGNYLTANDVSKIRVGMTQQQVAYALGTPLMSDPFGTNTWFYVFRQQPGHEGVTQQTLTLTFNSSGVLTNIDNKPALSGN

On to “BamB (from UniProt P77774 20-392) (natural protein)”, for which the stoichiometry N was 1 molar ratio.
